The values below are quoted from earlier work in paper PMC3373146.

Read-outs that look alike come from different tables or passages of the source.

As a reminder, the Kd is the concentration at which binding is half-saturated.

Data set [1] has as its target KCa2.2 (SK2) (UniProt Q9H2S1).
The target of data set [2] is KCa2.3 (SK3) (UniProt Q9UGI6).
Data set [3] has as its target KCa2.1 (SK1) (UniProt Q92952).
Data set [4] has as its target Kv2.1 (UniProt Q14721).
In data set [5] the target is Kv2.1 (UniProt Q14721). The source holds these as a separate data set.
Kv2.1, sequence (Q14721 whole entry): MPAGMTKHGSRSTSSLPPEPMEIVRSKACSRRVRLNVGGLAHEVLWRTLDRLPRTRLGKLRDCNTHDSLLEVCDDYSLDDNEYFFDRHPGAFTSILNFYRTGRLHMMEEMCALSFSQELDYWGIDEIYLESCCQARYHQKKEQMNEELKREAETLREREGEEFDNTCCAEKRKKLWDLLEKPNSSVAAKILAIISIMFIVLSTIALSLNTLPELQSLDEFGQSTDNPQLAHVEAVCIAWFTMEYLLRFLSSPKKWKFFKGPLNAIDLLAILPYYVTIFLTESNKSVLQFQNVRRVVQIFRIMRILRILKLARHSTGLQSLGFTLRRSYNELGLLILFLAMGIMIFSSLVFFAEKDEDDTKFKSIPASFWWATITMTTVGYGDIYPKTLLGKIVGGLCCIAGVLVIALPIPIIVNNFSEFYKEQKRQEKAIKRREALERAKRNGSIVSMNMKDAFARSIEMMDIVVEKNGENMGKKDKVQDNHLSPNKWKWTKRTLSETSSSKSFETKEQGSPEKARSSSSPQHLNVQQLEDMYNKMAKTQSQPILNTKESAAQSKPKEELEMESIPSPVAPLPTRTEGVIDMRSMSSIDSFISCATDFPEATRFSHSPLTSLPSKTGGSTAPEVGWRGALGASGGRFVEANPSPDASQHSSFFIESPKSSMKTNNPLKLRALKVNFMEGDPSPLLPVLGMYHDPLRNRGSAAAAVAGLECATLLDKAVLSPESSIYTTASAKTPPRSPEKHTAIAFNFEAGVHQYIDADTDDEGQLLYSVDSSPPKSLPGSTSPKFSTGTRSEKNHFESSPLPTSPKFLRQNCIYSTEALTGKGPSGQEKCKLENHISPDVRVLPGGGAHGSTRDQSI

hanatoxin 2, sequence (P56853 whole entry): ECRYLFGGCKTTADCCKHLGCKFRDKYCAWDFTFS
KCa2.2 (SK2), sequence (Q9H2S1 whole entry): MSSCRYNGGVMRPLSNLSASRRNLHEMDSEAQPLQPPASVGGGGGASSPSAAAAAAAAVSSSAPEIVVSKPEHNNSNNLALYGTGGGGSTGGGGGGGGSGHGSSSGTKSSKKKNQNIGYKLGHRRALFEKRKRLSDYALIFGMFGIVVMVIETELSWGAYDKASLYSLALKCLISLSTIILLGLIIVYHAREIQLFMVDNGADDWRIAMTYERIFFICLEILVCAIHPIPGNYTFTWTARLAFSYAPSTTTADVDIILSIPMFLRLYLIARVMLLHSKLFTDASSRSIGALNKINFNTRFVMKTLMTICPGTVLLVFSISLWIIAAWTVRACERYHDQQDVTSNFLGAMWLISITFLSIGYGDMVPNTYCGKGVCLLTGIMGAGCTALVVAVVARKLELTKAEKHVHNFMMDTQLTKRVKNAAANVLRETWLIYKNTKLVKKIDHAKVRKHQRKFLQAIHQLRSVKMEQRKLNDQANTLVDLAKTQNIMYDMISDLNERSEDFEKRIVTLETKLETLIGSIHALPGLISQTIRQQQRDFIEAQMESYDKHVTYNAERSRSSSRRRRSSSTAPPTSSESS
hanatoxin 1, sequence (P56852 50-84): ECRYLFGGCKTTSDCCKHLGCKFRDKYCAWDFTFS
KCa2.3 (SK3), sequence (Q9UGI6 whole entry): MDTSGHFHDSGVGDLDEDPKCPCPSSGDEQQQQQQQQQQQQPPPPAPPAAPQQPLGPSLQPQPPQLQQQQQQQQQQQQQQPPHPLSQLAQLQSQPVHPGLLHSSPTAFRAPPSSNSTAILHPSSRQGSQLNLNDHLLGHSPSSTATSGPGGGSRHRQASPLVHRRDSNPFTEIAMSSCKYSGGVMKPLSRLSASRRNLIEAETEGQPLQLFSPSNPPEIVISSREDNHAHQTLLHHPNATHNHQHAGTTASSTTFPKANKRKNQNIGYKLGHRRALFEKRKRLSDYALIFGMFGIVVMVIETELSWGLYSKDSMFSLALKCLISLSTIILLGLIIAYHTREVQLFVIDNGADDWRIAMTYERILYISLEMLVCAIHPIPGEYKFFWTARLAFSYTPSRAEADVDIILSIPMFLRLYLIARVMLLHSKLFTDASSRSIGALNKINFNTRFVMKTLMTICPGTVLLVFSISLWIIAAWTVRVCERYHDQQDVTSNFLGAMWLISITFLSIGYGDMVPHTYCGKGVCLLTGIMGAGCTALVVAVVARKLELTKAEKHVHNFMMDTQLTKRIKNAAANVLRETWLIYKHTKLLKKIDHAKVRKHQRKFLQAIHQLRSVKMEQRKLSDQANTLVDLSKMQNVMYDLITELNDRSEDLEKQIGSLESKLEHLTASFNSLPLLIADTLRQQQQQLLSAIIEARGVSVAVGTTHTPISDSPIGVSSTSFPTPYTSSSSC
KCa2.1 (SK1), sequence (Q92952 whole entry): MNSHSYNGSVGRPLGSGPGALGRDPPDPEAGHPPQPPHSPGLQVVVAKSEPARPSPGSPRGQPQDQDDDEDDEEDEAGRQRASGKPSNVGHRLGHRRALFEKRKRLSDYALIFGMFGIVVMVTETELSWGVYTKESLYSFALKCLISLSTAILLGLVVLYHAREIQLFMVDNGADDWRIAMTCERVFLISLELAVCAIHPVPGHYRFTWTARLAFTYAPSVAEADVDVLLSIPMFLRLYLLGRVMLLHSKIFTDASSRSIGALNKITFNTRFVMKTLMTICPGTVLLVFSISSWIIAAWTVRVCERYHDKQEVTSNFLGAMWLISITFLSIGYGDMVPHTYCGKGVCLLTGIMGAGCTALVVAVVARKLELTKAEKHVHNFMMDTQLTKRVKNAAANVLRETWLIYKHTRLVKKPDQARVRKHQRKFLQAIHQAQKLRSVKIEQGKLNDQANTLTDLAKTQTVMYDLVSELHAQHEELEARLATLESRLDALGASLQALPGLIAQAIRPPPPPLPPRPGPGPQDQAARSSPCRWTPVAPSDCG

As to apamin (from UniProt P01500), the Kd is 0.004 nM in data set [1], 0.011 nM in data set [2] and 0.39 nM in data set [3]. In the case of hanatoxin 1 (from UniProt P56852), in data set [4], the Kd is 42 nM.

On to hanatoxin 2 (from UniProt P56853), for which, in data set [5], the Kd was 42 nM.
